Where a chain is given by its changes, count along the chain named. Where no end group is shown, it is not given here.
T1: Biotinylated TP-73 peptide (aa 181-190 of SEQ ID NO:1) (human, also: biotinylated (position not given here))
T1 construct: Immobilized on a streptavidin (SA) sensor chip
T1 peptide: KQSQDEPLRS

B1: ACI-7069-636E5-Ab1 (antibody, mouse IgG2b, V domains shown)
VH: EVHLVESGGDLVMPGGSLKLSCAASGFTFSNYGMSWVRQTPDKRLEWVATISSGGKYINYLDSLKGRFTISRDNAKNTLYLQMSSLKSEDTAMYYCAKDYGSGWAWFAYWGQGTLVTVSA
VL: QLVLTQSSSASFSLGASAKLTCTLSSQHSTYTIEWYQQQPLKPPKYVMELKKDGSHSTGDGIPDRFSGSSSGADRYLSISNIQPEDEAIYICGVGDTIKEQFVYVFGGGTKVTVL
notes: Mouse IgG2b, lambda, from hybridoma; also called 636E5B8
B2: ACI-7069-634H10-Ab2 (antibody, mouse IgG2b, V domains shown)
VH: EVQLQQSGAELVKPGASVRLSCTASGFNIKDTYMHWVKQRPEQGLEWIGRIDPANSNTKFDPKFQGKATITSDTSSNTAYLQLSSLTSEDTAVYYCARFYGGSHWYFDVWGAGTTVTVSS
VL: DIKMTQSPSSMYASLGERVTITCKASQDIKSYLSWYQHKPWKSPKALIYYATSLADGVPSRFSGSGSGQDYSLTISSLESDDTATYYCLQQGESPYTFGGGTKLEIK
notes: Mouse IgG2b, kappa, from hybridoma; also called 634H10H7
B3: ACI-7069-642D12-Ab1 (antibody, mouse IgG2b, V domains shown)
VH: EVQLQQSGAELVKPGASVRLSCTASGFNIKDPYMHWVRQRPKQGLEWIGRIDPADGNTKYDPKFQGKATLTADTSSNVAYLHLSSLTSEDTAVYYCARFYGSSHWYFDVWGAGTTVTVSS
VL: B2 VL with S31R, H38Q, A46I, S65T, T83V
notes: Mouse IgG2b, kappa, from hybridoma; also called 642D12B4
B4: ACI-7071-712A6-Ab1 (antibody, mouse IgG2c, V domains shown)
VH: QVQLQQSGAELVKPGTSVKLSCKASAYTFTEYTIHWIKQKSGQGLEWIGWFHPENDNIKYNENFKDKATLTADRSSSTVYMELSRLTSEDSAVYFCAGTSGYGDYWGQGTTLTVSS
VL: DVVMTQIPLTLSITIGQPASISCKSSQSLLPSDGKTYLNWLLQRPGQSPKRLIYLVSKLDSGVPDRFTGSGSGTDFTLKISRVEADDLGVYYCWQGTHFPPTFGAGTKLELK
notes: Mouse IgG2c; also called 712A6B10
B5: ACI-7071-809F12-Ab1 (antibody, mouse IgG2b, V domains shown)
VH: QVQLKESGPGLVAPSQSLSITCTVSGFSLNRNGVQWVRQPPGKGLEWLGVIWPGGSTNCNSALMSRLSISKDNSKSQVFLKMNSLHTDDTGIYYCARVGGNYVWDYNNYAWGQGTLVTVSA
VL: DVLMTQTPLSLPVSLGDQASISCRSSQNIVHSIGNTYLEWYLQKPGQSPKLLIYKVSNRFSGVPDRFSGSGSGTDFTLKISRVEAEDLGVYYCFQGSHVPYTFGGGTKLEIR
notes: Mouse IgG2b, kappa, from hybridoma; also called 809F12D8
B6: ACI-7069-641H1-Ab2 (antibody, mouse IgG2b, V domains shown)
VH: QVQLKESGPGLVAPSQSLSITCTVSGFSLTNYGVHWVRQPPGKGLEWLGLMWAGGSTNYNSALMSRLSISKDNSKSQVFLKMNSLQTDDTAMYYCVIYRTGFAYWGQGTLVTVSA
VL: B5 VL with N28S, S32T, Y101F, G105S, R112K
notes: Mouse IgG2b, kappa, from hybridoma; also called 641H1E7
B7: ACI-7069-646B7-Ab1 (antibody, mouse IgG2b, V domains shown)
VH: B6 VH with Y32F, L50I, R99K
VL: B5 VL with N28S, S32A, Y101F, G105S, R112K
notes: Mouse IgG2b, kappa, from hybridoma; also called 646B7F7
B8: 633B12C8 Fab (Fab, V domains shown)
VH: EVQLQQSGPELVKPGASVKISCKTSGFTFTEYSMHWVKQSHGKSLEWIGGINPNNGGTSYNQKFKGKATLTVDKSSSTAYMELRSLTSEDSAVYYCARESWGQGTTLTVSS
VL: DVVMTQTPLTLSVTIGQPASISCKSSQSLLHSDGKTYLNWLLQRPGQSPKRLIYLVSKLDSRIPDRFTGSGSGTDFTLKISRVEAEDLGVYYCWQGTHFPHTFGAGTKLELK
notes: Fab fragment; also called Fab fragment of ACI-7069-633B12-Ab1
B9: ACI-7069-642D12-Ab1 (IgG2a variant) (antibody, V domains shown)
VH: B3 VH
VL: B2 VL with S31R, H38Q, A46I, S65T, T83V
notes: Recombinantly produced mouse IgG2a isotype; also called 642D12B4 *; ACI-7069-642D12-Ab1 (IgG2a isotype)
B10: ACI-7069-633B12-Ab1 (IgG2a variant) (antibody, V domains shown)
VH: B8 VH
VL: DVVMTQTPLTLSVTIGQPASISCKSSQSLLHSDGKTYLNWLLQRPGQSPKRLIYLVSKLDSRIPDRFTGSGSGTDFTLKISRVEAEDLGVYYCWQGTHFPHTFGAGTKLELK
notes: Recombinantly produced mouse IgG2a isotype; also called 633B12C8*; ACI-7069-633B12-Ab1 (IgG2a isotype)

Target: T2, recombinant human full-length TDP-43 (TAR DNA-binding protein 43), soluble (human, UniProt Q13148 1-414)
T2 construct: Used on Luminex beads, coated on ELISA plates, and immobilized or injected in SPR; also called FL TDP-43; TDP-43 protein
Test: indirect ELISA, coated FL TDP-43
Protocol: Antibody binding to human FL TDP-43 was determined using an indirect ELISA. ELISA plate coating with 1 µg/ml human FL TDP-43 was performed overnight in carbonate buffer at 4° C. Plates were washed with 0.05% Tween-20/PBS and then blocked with 1% bovine serum albumin (BSA) in 0.05% Tween-20/PBS for 1 hour at 37° C. Antibodies purified from hybridoma supernatants were then added in a 3-fold serial dilution starting at 1 µg/ml, and incubated for 2 hours at 37° C. after which the plates were washed. An AP-conjugated anti-mouse IgG secondary antibody (Jackson Immunoresearch Laboratories, United Kingdom) was added at 1/1000 dilution in 0.05% Tween-20/PBS for 1 hour at 37° C. After the final wash, plates were incubated with pNPP (Sigma-Aldrich, Switzerland) phosphatase substrate solution, and read at 405 nm using an ELISA plate reader (Tecan, Switzerland).

T2 sequence (Q13148 whole entry): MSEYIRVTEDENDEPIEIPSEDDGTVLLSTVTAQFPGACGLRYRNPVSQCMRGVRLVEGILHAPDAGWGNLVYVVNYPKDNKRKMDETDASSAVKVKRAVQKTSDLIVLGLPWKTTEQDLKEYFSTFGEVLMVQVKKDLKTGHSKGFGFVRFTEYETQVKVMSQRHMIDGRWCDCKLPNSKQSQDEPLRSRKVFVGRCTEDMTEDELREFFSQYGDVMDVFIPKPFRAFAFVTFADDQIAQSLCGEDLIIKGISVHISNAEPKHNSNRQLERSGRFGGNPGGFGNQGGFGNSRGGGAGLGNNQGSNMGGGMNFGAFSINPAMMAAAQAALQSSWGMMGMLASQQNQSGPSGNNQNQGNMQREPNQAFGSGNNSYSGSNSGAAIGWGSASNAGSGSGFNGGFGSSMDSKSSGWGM

EC50	Binder
0.015 µg/mL	B1
0.053 µg/mL	B2
0.014 µg/mL	B3
0.102 µg/mL	B4
0.014 µg/mL	B5
0.016 µg/mL	B6
0.011 µg/mL	B7

Target: T2, recombinant human full-length TDP-43 …
Test: SPR, mAb captured, FL TDP-43 injected; mean
Protocol: Binding affinity to soluble FL TDP-43 was evaluated by determing the dissociation constants (KD) using surface plasmon resonance (SPR; Biacore T200, GE Healthcare Life Sciences). Goat-anti mouse capture antibody was immobilized on a CM5 Series S sensor chip (GE Healthcare Life Sciences) by amine coupling. Antibodies were captured at a concentration of 2-5 µg/ml in PBS-P⁺ (GE Healthcare Life Sciences) with a flow rate of 10 µl/min for 120 seconds resulting in a capture level of 350-1000 RU. […] Dissociation was recorded for 1 h followed by one regeneration with 10 mM glycine-HCl pH 1.7. Results obtained from binding kinetics were double-referenced using a blank flow cell and a buffer cycle and were evaluated with a global 1:1 fitting model with RI.

Kd	koff	kon	Binder
0.249 nM	2.76e-05 s⁻¹	110000 M⁻¹ s⁻¹	B3
0.423 nM	1.36e-05 s⁻¹	32000 M⁻¹ s⁻¹	B5

Target: T2, recombinant human full-length TDP-43 …
Test: Luminex, FL TDP-43 on beads
Protocol: Mice were euthanized and fusion with myeloma cells was performed using splenocytes from four individual mice. Screening for antibodies from the successfully fused hybridoma cell lines were performed as follows. Diluted (1:32) cell culture supernatants were analyzed using Luminex bead-based multiplex assay (Luminex, The Netherlands). Luminex beads were conjugated to FL TDP-43 and with capturing IgGs with anti-mouse IgG-Fc antibodies specific for the IgG1, IgG2a, IgG2b, IgG2c, and IgG3 subclasses (Jackson Immunoresearch, USA). Binding to beads conjugated to FL TDP-43 identified 386 hits derived from mice immunized with the FL TDP-43 liposomal vaccine.
Luminex assays with serial dilution of antibodies were performed as described before to determine half maximal effective concentration (EC50) of binding of antibodies to FL TDP-43. In summary, all tested antibodies bind to full length TDP-43 with high affinity.

EC50	Binder
< 0.01 nM	B1
< 0.01 nM	B2
< 0.01 nM	B3
0.18 nM	B4
< 0.01 nM	B5
< 0.01 nM	B6
< 0.01 nM	B7

Target: T2, recombinant human full-length TDP-43 …
Test: SPR, immobilized soluble TDP-43
Protocol: (§1) Binding avidity to soluble or aggregated FL TDP-43 was evaluated by determing the dissociation constants (KD) using surface plasmon resonance (SPR; Biacore T200, GE Healthcare Life Sciences). Recombinant human soluble or aggregated FL TDP-43 were immobilized on a CM5 Series S sensor chip (GE Healthcare Life Sciences) by amine coupling. Soluble TDP-43 was immobilized at a concentration of 5 µg/ml in 10 mM sodium acetate (pH 4.5) with a flow rate of 5 µl/min for 420 seconds resulting in an immobilization level of 150 RU. Aggregated TDP-43 was immobilized at a concentration of 50 µg/ml in 10 mM sodium acetate (pH 4.5) with a flow rate of 5 µl/min for 840 seconds resulting in an immobilization level of 110 RU. Biotinylated TP-73 peptide (aa 181-190 of SEQ ID NO:1) was immobilized on a Series S Sensor Chip SA (GE Healthcare Life Sciences) at a concentration of 5 µg/ml in PBS-P⁺ with a flow rate of 5 µl/min for 30 seconds resulting in an immobilization level of 400 RU. […] The antibodies were injected at a flow rate of 50 µl/min for 90 seconds contact time and 700 seconds dissociation phase followed by three regenerations with 10 mM glycine-HCl pH 1.7. For the optimized SPR protocol the antibodies were diluted 3-fold starting from 300 nM and dilute down to 1.2 nM and injected for 300 seconds at 30 µl/min followed by 600 seconds dissociation. The surface was regenerated by one injection with 10 mM glycine-HCl pH 1.7. Results obtained from binding kinetics were double-referenced using a blank flow cell and a buffer cycle and were evaluated with a global 1:1 fitting model with RI. Avidities for 11 antibodies and two Fab fragments are depicted in Table 8. […] In addition, some antibodies show preferential binding to aggregated TDP-43 as compared with soluble TDP-43.

Kd	koff	kon	Binder
43.8 nM	0.000682 s⁻¹	15600 M⁻¹ s⁻¹	B1
19.7 nM	0.000874 s⁻¹	44300 M⁻¹ s⁻¹	B2
5.28 nM	0.000838 s⁻¹	159000 M⁻¹ s⁻¹	B3
406 nM	0.000545 s⁻¹	1340 M⁻¹ s⁻¹	B4
1.68 nM	0.000167 s⁻¹	99400 M⁻¹ s⁻¹	B5
6.76 nM	0.000841 s⁻¹	125000 M⁻¹ s⁻¹	B6
3.66 nM	0.00065 s⁻¹	178000 M⁻¹ s⁻¹	B7
–	0.000146 s⁻¹	55100 M⁻¹ s⁻¹	B8

Target: T3, recombinant human aggregated full-length TDP-43 (human, UniProt Q13148 1-414)
T3 construct: also called aggregated TDP-43; aggregated FL TDP-43
Test: SPR, immobilized aggregated TDP-43
Protocol: as §1

T3 sequence (Q13148 whole entry): as above

Kd	koff	kon	Binder
2.43 nM	0.000274 s⁻¹	113000 M⁻¹ s⁻¹	B1
1.51 nM	0.000166 s⁻¹	110000 M⁻¹ s⁻¹	B2
0.88 nM	0.000131 s⁻¹	148000 M⁻¹ s⁻¹	B3
0.68 nM	2.36e-05 s⁻¹	34800 M⁻¹ s⁻¹	B4
0.81 nM	7.63e-05 s⁻¹	94700 M⁻¹ s⁻¹	B5
1.6 nM	0.000193 s⁻¹	121000 M⁻¹ s⁻¹	B6
1.28 nM	0.000184 s⁻¹	144000 M⁻¹ s⁻¹	B7
6.9 nM	0.000215 s⁻¹	32200 M⁻¹ s⁻¹	B8

Target: T3, recombinant human aggregated …
Test: SPR optimized protocol, immobilized aggregated TDP-43

Kd	koff	kon	Binder
0.69 nM	9.87e-05 s⁻¹	149000 M⁻¹ s⁻¹	B9
0.18 nM	1.32e-05 s⁻¹	84000 M⁻¹ s⁻¹	B10

Target: T1, Biotinylated TP-73 peptide (aa 181-190 …)
Test: SPR, biotinylated TP-73 on SA chip
Protocol: Binding avidity to soluble or aggregated FL TDP-43 was evaluated by determing the dissociation constants (KD) using surface plasmon resonance (SPR; Biacore T200, GE Healthcare Life Sciences). Recombinant human soluble or aggregated FL TDP-43 were immobilized on a CM5 Series S sensor chip (GE Healthcare Life Sciences) by amine coupling. Soluble TDP-43 was immobilized at a concentration of 5 µg/ml in 10 mM sodium acetate (pH 4.5) with a flow rate of 5 µl/min for 420 seconds resulting in an immobilization level of 150 RU. Aggregated TDP-43 was immobilized at a concentration of 50 µg/ml in 10 mM sodium acetate (pH 4.5) with a flow rate of 5 µl/min for 840 seconds resulting in an immobilization level of 110 RU. Biotinylated TP-73 peptide (aa 181-190 of SEQ ID NO:1) was immobilized on a Series S Sensor Chip SA (GE Healthcare Life Sciences) at a concentration of 5 µg/ml in PBS-P⁺ with a flow rate of 5 µl/min for 30 seconds resulting in an immobilization level of 400 RU. […] The antibodies were injected at a flow rate of 50 µl/min for 90 seconds contact time and 700 seconds dissociation phase followed by three regenerations with 10 mM glycine-HCl pH 1.7. […] Results obtained from binding kinetics were double-referenced using a blank flow cell and a buffer cycle and were evaluated with a global 1:1 fitting model with RI. […]

Kd	Binder
3.6 nM	B3

Target: T2, recombinant human full-length TDP-43 …
Test: SPR optimized protocol, immobilized soluble TDP-43

Kd	koff	kon	Binder
3.9 nM	0.00045 s⁻¹	115000 M⁻¹ s⁻¹	B9
0.22 nM	1.08e-05 s⁻¹	61800 M⁻¹ s⁻¹	B10

Target: T2, recombinant human full-length TDP-43 …
Test: SPR, immobilized soluble TDP-43; Fab fragment, not whole antibody; soluble TDP-43 on the chip

Kd	Binder
2.8 nM	B8

— patent US20230322908A1 (AC IMMUNE, published 2023)
